From patent US20170174733A1 (Genentech, published 2017) come the findings set out here.

Substitutions are numbered along the chain they refer to. Numbers in names are those of the source.

The target in assay [1] is T1, LRP6 E1E2 with a C-terminal Avi-tag and His6-tag (human, UniProt O75581 20-630, biotinylated (Avi-tag) where loaded on streptavidin tips; unlabeled where in solution).
T1 construct: domain: E1E2; also called LRP6 receptor fragment E1E2; biotinylated LRP6-E1E2; not shown: C-terminal Avi-tag and His6-tag
T1 sequence: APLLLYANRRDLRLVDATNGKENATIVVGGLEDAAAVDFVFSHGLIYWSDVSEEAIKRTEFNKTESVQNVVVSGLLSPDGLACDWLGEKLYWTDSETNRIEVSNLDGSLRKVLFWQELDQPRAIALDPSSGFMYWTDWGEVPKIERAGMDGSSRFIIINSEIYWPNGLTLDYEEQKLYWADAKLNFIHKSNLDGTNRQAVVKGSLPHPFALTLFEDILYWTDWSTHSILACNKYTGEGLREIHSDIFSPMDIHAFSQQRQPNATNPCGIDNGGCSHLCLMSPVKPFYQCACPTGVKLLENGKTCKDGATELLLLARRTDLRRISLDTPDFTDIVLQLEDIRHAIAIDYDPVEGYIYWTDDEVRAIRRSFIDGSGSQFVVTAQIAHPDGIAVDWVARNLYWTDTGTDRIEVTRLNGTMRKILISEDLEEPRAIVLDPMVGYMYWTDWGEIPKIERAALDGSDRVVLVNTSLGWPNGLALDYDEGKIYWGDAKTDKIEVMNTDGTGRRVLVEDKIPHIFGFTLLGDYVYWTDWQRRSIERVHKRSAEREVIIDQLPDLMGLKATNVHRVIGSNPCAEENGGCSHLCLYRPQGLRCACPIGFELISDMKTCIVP
As to the kind of experiment: BLI (OctetRED384): Strep-tagged variant captured by StrepMAB-Immo on AMC tips, LRP6-E1E2 in solution.

A further assay deals with LRP6 on HEK293S cells (human, UniProt O75581 20-1613). Description: cell-based or functional assay.
For assay [2], the target named is T1, LRP6 E1E2 with a C-terminal Avi-tag and …. Description: BLI (OctetRED384), monomeric variant.
In a further assay the target is T2, papain (UniProt P00784 134-345).
T2 construct: Coated on ELISA plates
T2 sequence: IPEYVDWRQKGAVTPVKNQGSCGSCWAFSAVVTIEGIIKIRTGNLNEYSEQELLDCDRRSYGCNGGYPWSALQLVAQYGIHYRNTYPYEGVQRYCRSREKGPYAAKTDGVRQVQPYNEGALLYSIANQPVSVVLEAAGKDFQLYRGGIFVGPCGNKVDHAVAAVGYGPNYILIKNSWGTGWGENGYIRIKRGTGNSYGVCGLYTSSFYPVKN
Description: phage ELISA on coated papain, 2-fold phage dilutions, anti-M13-HRP detection, OD 450 nm. Background: An ELISA detects its analyte on a solid surface through an enzyme-linked reagent.

For a further assay, the target named is BSA (UniProt P02769 25-607). As to the kind of experiment: phage ELISA on BSA as control, 2-fold phage dilutions, anti-M13-HRP detection, OD 450 nm.
BSA, sequence (P02769 25-607 limits assumed): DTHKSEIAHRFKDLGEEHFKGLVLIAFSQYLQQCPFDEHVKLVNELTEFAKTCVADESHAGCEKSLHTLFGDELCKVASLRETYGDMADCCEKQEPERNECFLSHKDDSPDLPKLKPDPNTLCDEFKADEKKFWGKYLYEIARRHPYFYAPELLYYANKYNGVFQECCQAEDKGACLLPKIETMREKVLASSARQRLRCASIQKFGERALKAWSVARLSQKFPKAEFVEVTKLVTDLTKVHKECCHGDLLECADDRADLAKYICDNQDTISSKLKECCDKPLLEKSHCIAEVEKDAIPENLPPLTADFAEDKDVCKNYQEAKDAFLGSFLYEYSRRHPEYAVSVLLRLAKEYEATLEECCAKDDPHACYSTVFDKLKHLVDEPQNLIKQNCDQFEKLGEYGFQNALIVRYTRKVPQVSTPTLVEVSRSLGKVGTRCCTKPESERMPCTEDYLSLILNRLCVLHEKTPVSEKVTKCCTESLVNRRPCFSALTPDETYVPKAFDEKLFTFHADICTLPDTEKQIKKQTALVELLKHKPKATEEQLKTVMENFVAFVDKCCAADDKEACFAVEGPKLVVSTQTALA
For assay [3], the target named is anti-gD antibody (Genentech, Inc.). As to the kind of experiment: phage ELISA on coated anti-gD antibody, 2-fold phage dilutions, anti-M13-HRP detection, OD 450 nm.
Assay [4] deals with T3, VEGF109 (UniProt P15692 214-315, biotinylated where loaded on streptavidin tips).
T3 construct: range 8-109; also called VEGF8-109; biotinylated VEGF109
T3 sequence: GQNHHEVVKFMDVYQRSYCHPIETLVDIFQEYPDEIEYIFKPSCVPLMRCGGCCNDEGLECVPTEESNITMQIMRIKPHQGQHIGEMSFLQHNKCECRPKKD
Description: BLI (Octet) on VEGF109. For orientation: Biolayer interferometry detects binding as a change in optical thickness at a sensor tip.
Description: Binding affinities of chagasin variants for the targets LRP6 and VEGF109 were measured using the OctetRED384 (ForteBio). All washes, dilutions and measurements were performed in PBS-based kinetics buffer (ForteBio) with the plate shaking at 1000 rpm. Streptavidin biosensors (SA tips, ForteBio) were equilibrated in kinetics buffer for 5 min and then loaded with either biotinylated LRP6-E1E2 or biotinylated VEGF109 (20 μg/ml) to a density of 2 nm signal difference, followed by a 3 min washing step. […] Dissociation of the chagasin variant-target complex was measured in wells containing kinetics buffer alone for up to 30 min. Sensorgrams with ligand-loaded SA tips going through wells containing only buffer in both association and dissociation measurement were used as reference for background subtraction. Kd, kₐ and kd were determined using the Octet evaluation software v7.0.1.3. using a 1:1 binding model with global fitting. Alternatively, AMC-biosensors (Fortebio) were loaded with StrepMAB-Immo (IBA GmbH) to saturation and subsequently used to capture Strep-tag II containing chagasin variants to saturation. After 5 min of washing in kinetics buffer, binding kinetics to unlabeled LRP6-E1E2 fragment was determined essentially as described above.

Assay [5] concerns the target T4, human VEGF (human, UniProt P15692 27-191). As to the kind of experiment: cell-based or functional assay.
Assay [6] deals with T4, human VEGF. As to the kind of experiment: cell-based or functional assay. This is another data set of the same source.
Assay [7] addresses T3, VEGF109. Description: phage spot ELISA on VEGF with the phage-displayed clone 37, as told by the legend and paragraph 367; the sheet draws sequences only, no signals.
Assay [8] deals with T3, VEGF109. As to the kind of experiment: phage ELISA, 5 ug/ml VEGF coated on 384-well Maxisorp, OD 450 nm.

T4 sequence (P15692 other isoform, or with tags, fused parts or gaps limits assumed): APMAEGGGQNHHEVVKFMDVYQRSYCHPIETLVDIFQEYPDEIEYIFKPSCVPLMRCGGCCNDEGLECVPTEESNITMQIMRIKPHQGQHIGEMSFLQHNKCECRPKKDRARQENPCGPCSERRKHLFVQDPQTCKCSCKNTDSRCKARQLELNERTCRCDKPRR

B1: chagasin LRP6 variant S (designed binder)
chain: MSHKVTKAHNGATLTVAVGELVEIQLPSNPADGFAWYFEGGTKESPNESMFTVENKYFPSNYTKHGAGGTEHFHVTVKAAGTHAVNLTYMPREKGSSLVMERFTVYLKANSAWSHPQFEK
B1 displayed a Kd in [1] of 70 nM.

B2: chagasin LRP6 variant S11 (designed binder)
chain: MSHKVTKAHNGATLTVAVGELVEIQLPSNVDGFAWYFEGGTKESPNESMFTVENKYFPSNSTKRGAGGTEHFHVTVKAAGTHAVNLTYMPRVKGAYLVMERFTVYLKAN
notes: also called clone S11
B2: the “IC50, inhibition of Wnt1 signaling (luciferase reporter, HEK293S cells transfected by WNT1)” value with LRP6 on HEK293S cells came to 400 nM. The Kd in [2] came out at 74 nM.

B3: chagasin LRP6 variant H (designed binder)
chain: MSHKVTKAHNGATLTVAVGELVEIQLPSNPTTGFAWYFEGGTKESPNESMFTVENKYFPYNNIRGLPGFGAGGTEHFHVTVKAAGTHAVNLTYMRPWTGPSHDSERFTVYLKANSAWSHPQFEK
On to B3, for which, in assay [1], the affinity, expressed as Kd, was 6 nM.

B4: phage-displayed gD-tagged wild-type chagasin fused to phage coat protein p3 (other)
chain: MADPNRFRGKDLGSLEMSHKVTKAHNGATLTVAVGELVEIQLPSNPTTGFAWYFEGGTKESPNESMFTVENKYFPPDSKLLGAGGTEHFHVTVKAAGTHAVNLTYMRPWTGPSHDSERFTVYLKANGGSGGSGGS
notes: also called chagasin wild-type (wt); p3-fusion display; not shown: phage coat protein g3 (p3)
As for B4, the results for the “EC50 (read off the curve)” value (with papain; in assay [3]) were roughly 0.04 OD 268 nM and roughly 0.01 OD 268 nM, respectively. The binding result with BSA was “no binding (tested: 0.5 OD 268 nm)”.

B5: phage-displayed gD-tagged wild-type chagasin fused to phage coat protein p8 (other)
chain: B4 chain
notes: also called chagasin wild-type (wt); p8-fusion display; not shown: phage coat protein g8 (p8)
B5: the “EC50 (read off the curve)” value with papain is roughly 0.04 OD 268 nM; in assay [3], roughly 0.02 OD 268 nM. In addition, in the assay with BSA, the binding result was “no binding (tested: 0.5 OD 268 nm)”.

B6: chagasin VEGF binder Variant 66-L2-K (designed binder)
chain: MSHKVTKAHNGATLTVAVGELVEIQLPSNYYKDGFAWYFEGGTKESPNESMFTVENKYFPHYYNLGGRYTGAGGTEHFHVTVKAAGTHAVNLTYMGPWLGPSRVLERFTVYLKAN
In the assay with VEGF109 [4], B6 displayed a Kd of 61 nM.

B7: chagasin VEGF binder Variant 66-L4-Q (designed binder)
chain: B6 chain with K32Y, Y63Q
In the assay with VEGF109 [4], B7 showed a Kd of 80 nM.

B8: chagasin VEGF binder Variant 66-L4-S (designed binder)
chain: B6 chain with K32Y, Y63S, A72G, G73A
With B8, in the assay with VEGF109 [4], the equilibrium dissociation constant (Kd) worked out at 50 nM.

B9: chagasin VEGF binder Variant 66-L4-T (designed binder)
chain: B6 chain with K32Y, Y63T, A72G, G73A
With B9, the Kd in the assay with VEGF109 [4] was 51 nM.

B10: chagasin VEGF variant L4X6-3 (designed binder)
chain: MSHKVTKAHNGATLTVAVGELVEIQLPSNYFNDGFAWYFEGGTKESPNESMFTVENKYFPGSSYWGGAGGTEHFHVTVKAAGTHAVNLTYMAPWAGPSRVLERFTVYLKAN
B10: the “Inhibitory Activity (IC50, nM) against hVEGF in cell-based assays” value (from here on “Inhibitory Activity (IC50, nM)”) with human VEGF [5] came out at 710 nM.

B11: chagasin VEGF variant E4B-5 (designed binder)
chain: MSHKVTKAHNGATLTVAVGELVEIQLPSNYFYEGFAWYFEGGTKESPNESMFTVENKYFPNGPGLGVYGAGGTEHFHVTVKAAGTHAVNLTYMAPWQGPSRELERFTVYLKAN
In the case of B11, in the assay with human VEGF [5], the “Inhibitory Activity (IC50, nM)” value came to 800 nM.

B12: chagasin VEGF variant L4X8-9 (designed binder)
chain: B11 chain with E33D, N61S, P63S, G64Y, L65M, G66S, V67Y, Y68S, Q97L, E102D
In the case of B12, in the assay with human VEGF [6], the “IC50, inhibition of VEGF-dependent signaling through the KDR receptor on cells” value stood at 301 nM and the “fold improvement of IC50 over the parental chagasin variant 4” value was 2 fold. Moreover, the “Inhibitory Activity (IC50, nM)” value in the assay with human VEGF [5] was determined as 300 nM.

B13: chagasin VEGF variant E4B-10 (designed binder)
chain: B11 chain with E33D, N61D, G62D, L65S, V67L, Y68W, Q97S, E102Y
With B13, in the assay with human VEGF [5], the “Inhibitory Activity (IC50, nM)” value is 610 nM.

B14: dimeric chagasin VEGF variant 37 (designed binder)
chain: B11 chain with Y32C, E33D, G62Y, L65S, Y68L, Q97F, E102V
notes: also called clone 37
Take B14: the binding result with VEGF109 [7] is “binds”.

B15: chagasin VEGF variant E4B-7 (designed binder)
chain: B11 chain with F31Y, E33D, G62V, P63N, L65S, G66H, V67A, Y68W, Q97S, E102F
With B15, in the assay with human VEGF [5], the “Inhibitory Activity (IC50, nM)” value turned out to be 550 nM.

B16: phage-displayed chagasin VEGF variant 2-40-D4 (designed binder)
chain: MADPNRFRGKDLGSLEMSHKVTKAHNGATLTVAVGELVEIQLPSNLQNAGFAWYFEGGTKESPNESMFTVENKYFPLSLYASETGAGGTEHFHVTVKAAGTHAVNLTYMNPNWGPDYWIERFTVYLKANGGSGGSGGS
notes: not shown: phage coat protein g3 (p3)
Take B16: the “EC50 (read off the curve)” value in the assay with VEGF109 [8] is roughly 0.003 OD 268 nM.

B17: phage-displayed chagasin VEGF variant 5-44-D8 (designed binder)
chain: MADPNRFRGKDLGSLEMSHKVTKAHNGATLTVAVGELVEIQLPSNLRSMGFAWYFEGGTKESPNESMFTVENKYFPAGPSAVPLGAGGTEHFHVTVKAAGTHAVNLTYMAPWRGPANVIERFTVYLKANGGSGGSGGS
notes: as for B16
Regarding B17, the “EC50 (read off the curve)” value with VEGF109 [8] was roughly 0.003 OD 268 nM.

B18: phage-displayed chagasin VEGF variant 4-66-F6 (designed binder)
chain: MADPNRFRGKDLGSLEMSHKVTKAHNGATLTVAVGELVEIQLPSNYFYDGFAWYFEGGTKESPNESMFTVENKYFPNDPGSRLSGAGGTEHFHVTVKAAGTHAVNLTYMAPWLGPSRVLERFTVYLKANGGSGGSGGS
notes: as for B16
With B18, the “EC50 (read off the curve)” value with VEGF109 [8] is roughly 0.007 OD 268 nM.

B19: chagasin LRP6 variant H15 (designed binder)
chain: MSHKVTKAHNGATLTVAVGELVEIQLPSNPTTGFAWYFEGGTKESPNESMFTVENKYFPSNKIKGIPGFGAGGTEHFHVTVKAAGTHAVNLTYMRPSTGPSDDSERFTVYLKAN
notes: also called clone H15
B19: the “IC50, inhibition of Wnt1 signaling (luciferase reporter, HEK293S cells transfected by WNT1)” value with LRP6 on HEK293S cells came out at 26 nM. In assay [2], this molecule came in with a Kd of 0.25 nM.

B20: phage-displayed chagasin VEGF variant 3-65-F5 (designed binder)
chain: MADPNRFRGKDLGSLEMSHKVTKAHNGATLTVAVGELVEIQLPSNYRDSGFAWYFEGGTKESPNESMFTVENKYFPVRAGQANEGAGGTEHFHVTVKAAGTHAVNLTYMSPVLGPRFWLERFTVYLKANGGSGGSGGS
notes: as for B16
As to B20, the “EC50 (read off the curve)” value in the assay with VEGF109 [8] is roughly 0.004 OD 268 nM.

B21: chagasin LRP6 variant P (designed binder)
chain: MSHKVTKAHNGATLTVAVGELVEIQLPSNPSCGFAWYFEGGTKESPNESMFTVENKYFPDSNEIWYCGAGGTEHFHVTVKAAGTHAVNLTYMSPYYGPTKVEERFTVYLKANSAWSHPQFEK
The molecule B21 had a dissociation constant Kd in assay [1] of 150 nM.

B22: phage-displayed chagasin VEGF variant 1-90-H6 (designed binder)
chain: MADPNRFRGKDLGSLEMSHKVTKAHNGATLTVAVGELVEIQLPSNLQDSGFAWYFEGGTKESPNESMFTVENKYFPSGTTGKSNGAGGTEHFHVTVKAAGTHAVNLTYMFKSRGLMVPLERFTVYLKANGGSGGSGGS
notes: as for B16
For B22, the “EC50 (read off the curve)” value in the assay with VEGF109 [8] was roughly 0.006 OD 268 nM.

Broadly, the Kd is the constant that tells how readily two partners part at equilibrium. A high value points to weaker binding.
